The labels stand for the following.
B1: PAIP1 peptide 124-139 (Polyadenylate-binding protein-interacting protein 1), 16-mer library wild type / PABPC1 PABC (PABPC1 PABC domain, residues 544-623) (parent complex)
chain 1: LMSKLSVNAPEFYPSG
chain 2: PLTASMLASAPPQEQKQMLGERLFPLIQAMHPTLAGKITGMLLEIDNSELLHMLESPESLRSKVDEAVAVLQAHQAKEAA
B2: PEX5 peptide 240-255 (Peroxisomal targeting signal 1 receptor), 16-mer library wild type / PEX14 Pex14 (PEX14 PEX14, residues 16-84) (parent complex)
chain 1: AEQWAAEFIQQQGTSD
chain 2: TPGSENVLPREPLIATAVKFLQNSRVRQSPLATRRAFLKKKGLTDEEIDMAFQQSGTAADEPSSLGPAT

Variants of B1 are the subject of one assay. The assay can be described thus: proteomic peptide phage display deep mutational scan (ProP-PD DMS): M13 P8 16-mer library selected against immobilised GST-tagged bait for four days (rounds), NGS of the eluted pools per day and pseudo-replica; bait immobilised on MaxiSorp plates (10 µg), library pre-cleared on GST, 2 h binding at 4 °C, five washes; one round per day, days 1-4; value from days 2 and 3.
For the variant chain 1 P10A, the screen value is 0.0041 average fractional NGS count over selection days 2 and 3 (reads of this peptide / all reads for the bait, averaged over ….
For chain 1 P10Y, the screen value was 0.000572 average fractional NGS count over selection days 2 and 3 (reads of this peptide / all reads for the bait, averaged over ….
Same read-out and setting: for chain 1 P10H the value was 0.000334 average fractional NGS count over selection days 2 and 3 (reads of this peptide / all reads for the bait, averaged over …; for chain 1 P10E, 0.00302 average fractional NGS count over selection days 2 and 3 (reads of this peptide / all reads for the bait, averaged over …; for chain 1 P10M, 0.000583 average fractional NGS count over selection days 2 and 3 (reads of this peptide / all reads for the bait, averaged over ….
The same measure, in the same setting: to chain 1 P10S belongs 0.00454 average fractional NGS count over selection days 2 and 3 (reads of this peptide / all reads for the bait, averaged over …; to chain 1 P10L, 0.00239 average fractional NGS count over selection days 2 and 3 (reads of this peptide / all reads for the bait, averaged over …; to chain 1 F12W, 0.00452 average fractional NGS count over selection days 2 and 3 (reads of this peptide / all reads for the bait, averaged over ….
On the same count and under the same terms, for chain 1 M2A the value was 0.000739 average fractional NGS count over selection days 2 and 3 (reads of this peptide / all reads for the bait, averaged over …; for chain 1 M2E, 0.00221 average fractional NGS count over selection days 2 and 3 (reads of this peptide / all reads for the bait, averaged over ….
chain 1 M2P: the screen value was 0.000581 average fractional NGS count over selection days 2 and 3 (reads of this peptide / all reads for the bait, averaged over ….
Still for that read-out and setting: to chain 1 M2G belongs 0.00279 average fractional NGS count over selection days 2 and 3 (reads of this peptide / all reads for the bait, averaged over …; to chain 1 M2W, 0.000144 average fractional NGS count over selection days 2 and 3 (reads of this peptide / all reads for the bait, averaged over …; to chain 1 M2V, 0.000531 average fractional NGS count over selection days 2 and 3 (reads of this peptide / all reads for the bait, averaged over ….
On the same count and under the same terms, to chain 1 S15M belongs 0.00153 average fractional NGS count over selection days 2 and 3 (reads of this peptide / all reads for the bait, averaged over …; to chain 1 S15Y, 0.00169 average fractional NGS count over selection days 2 and 3 (reads of this peptide / all reads for the bait, averaged over ….
On the same count and under the same terms, for chain 1 S15R the value was 0.00163 average fractional NGS count over selection days 2 and 3 (reads of this peptide / all reads for the bait, averaged over …; for chain 1 S15E, 0.0098 average fractional NGS count over selection days 2 and 3 (reads of this peptide / all reads for the bait, averaged over …; for chain 1 S15P, 0.000374 average fractional NGS count over selection days 2 and 3 (reads of this peptide / all reads for the bait, averaged over ….
In the case of chain 1 S15Q, the screen value is 0.000451 average fractional NGS count over selection days 2 and 3 (reads of this peptide / all reads for the bait, averaged over ….
For chain 1 S15F, the screen value was 0.00282 average fractional NGS count over selection days 2 and 3 (reads of this peptide / all reads for the bait, averaged over ….
With chain 1 S15G, the screen value was 0.00184 average fractional NGS count over selection days 2 and 3 (reads of this peptide / all reads for the bait, averaged over ….
The same measure, in the same setting: to chain 1 Y13I belongs 0.021 average fractional NGS count over selection days 2 and 3 (reads of this peptide / all reads for the bait, averaged over ….
The same measure, in the same setting: for chain 1 Y13M the value was 0.000346 average fractional NGS count over selection days 2 and 3 (reads of this peptide / all reads for the bait, averaged over …; for chain 1 Y13V, 0.000146 average fractional NGS count over selection days 2 and 3 (reads of this peptide / all reads for the bait, averaged over ….
Same read-out and setting: for chain 1 Y13K the value was 0.00389 average fractional NGS count over selection days 2 and 3 (reads of this peptide / all reads for the bait, averaged over ….
On to chain 1 Y13R, for which the screen value is 0.000336 average fractional NGS count over selection days 2 and 3 (reads of this peptide / all reads for the bait, averaged over ….
Still for that read-out and setting: for chain 1 Y13D the value was 0.00104 average fractional NGS count over selection days 2 and 3 (reads of this peptide / all reads for the bait, averaged over …; for chain 1 Y13S, 0.000669 average fractional NGS count over selection days 2 and 3 (reads of this peptide / all reads for the bait, averaged over ….
Same read-out and setting: for chain 1 Y13E the value was 0.00175 average fractional NGS count over selection days 2 and 3 (reads of this peptide / all reads for the bait, averaged over …; for chain 1 A9S, 0.000704 average fractional NGS count over selection days 2 and 3 (reads of this peptide / all reads for the bait, averaged over …; for chain 1 N8S, 0.00131 average fractional NGS count over selection days 2 and 3 (reads of this peptide / all reads for the bait, averaged over ….
Still for that read-out and setting: to chain 1 N8A belongs 0.000206 average fractional NGS count over selection days 2 and 3 (reads of this peptide / all reads for the bait, averaged over ….
Take chain 1 N8W: the screen value was 0.000471 average fractional NGS count over selection days 2 and 3 (reads of this peptide / all reads for the bait, averaged over ….
In the case of chain 1 N8F, the screen value was 0.00423 average fractional NGS count over selection days 2 and 3 (reads of this peptide / all reads for the bait, averaged over ….
In the case of chain 1 V7Y, the screen value was 0.000349 average fractional NGS count over selection days 2 and 3 (reads of this peptide / all reads for the bait, averaged over ….
Consider chain 1 V7P, for which the screen value was 0.00145 average fractional NGS count over selection days 2 and 3 (reads of this peptide / all reads for the bait, averaged over ….
Same read-out and setting: to chain 1 P14R belongs 0.00035 average fractional NGS count over selection days 2 and 3 (reads of this peptide / all reads for the bait, averaged over …; to chain 1 P14W, 0.000356 average fractional NGS count over selection days 2 and 3 (reads of this peptide / all reads for the bait, averaged over …; to chain 1 P14V, 0.000836 average fractional NGS count over selection days 2 and 3 (reads of this peptide / all reads for the bait, averaged over ….
Same read-out and setting: for chain 1 E11I the value was 0.000759 average fractional NGS count over selection days 2 and 3 (reads of this peptide / all reads for the bait, averaged over …; for chain 1 E11M, 0.000642 average fractional NGS count over selection days 2 and 3 (reads of this peptide / all reads for the bait, averaged over ….
In the case of chain 1 E11T, the screen value was 0.000925 average fractional NGS count over selection days 2 and 3 (reads of this peptide / all reads for the bait, averaged over ….
As for chain 1 S3A, the screen value was 0.00075 average fractional NGS count over selection days 2 and 3 (reads of this peptide / all reads for the bait, averaged over ….
For chain 1 S3K, the screen value is 0.000637 average fractional NGS count over selection days 2 and 3 (reads of this peptide / all reads for the bait, averaged over ….
On to chain 1 S3H, for which the screen value is 0.000523 average fractional NGS count over selection days 2 and 3 (reads of this peptide / all reads for the bait, averaged over ….
The same measure, in the same setting: to chain 1 S3N belongs 0.000537 average fractional NGS count over selection days 2 and 3 (reads of this peptide / all reads for the bait, averaged over ….
Same read-out and setting: to chain 1 S3Q belongs 0.00262 average fractional NGS count over selection days 2 and 3 (reads of this peptide / all reads for the bait, averaged over ….
Regarding chain 1 S3M, the screen value was 0.000284 average fractional NGS count over selection days 2 and 3 (reads of this peptide / all reads for the bait, averaged over ….
Same read-out and setting: to chain 1 S3T belongs 0.00109 average fractional NGS count over selection days 2 and 3 (reads of this peptide / all reads for the bait, averaged over ….
On the same count and under the same terms, to chain 1 G16W belongs 0.000405 average fractional NGS count over selection days 2 and 3 (reads of this peptide / all reads for the bait, averaged over …; to chain 1 G16Q, 0.00204 average fractional NGS count over selection days 2 and 3 (reads of this peptide / all reads for the bait, averaged over …; to chain 1 G16F, 0.00158 average fractional NGS count over selection days 2 and 3 (reads of this peptide / all reads for the bait, averaged over ….
Same read-out and setting: to chain 1 G16R belongs 0.000806 average fractional NGS count over selection days 2 and 3 (reads of this peptide / all reads for the bait, averaged over …; to chain 1 G16I, 0.00186 average fractional NGS count over selection days 2 and 3 (reads of this peptide / all reads for the bait, averaged over …; to chain 1 G16M, 0.00176 average fractional NGS count over selection days 2 and 3 (reads of this peptide / all reads for the bait, averaged over ….
As for chain 1 G16E, the screen value was 0.000703 average fractional NGS count over selection days 2 and 3 (reads of this peptide / all reads for the bait, averaged over ….
Turning to chain 1 G16T, the screen value was 0.000984 average fractional NGS count over selection days 2 and 3 (reads of this peptide / all reads for the bait, averaged over ….
In the case of chain 1 G16H, the screen value was 0.00575 average fractional NGS count over selection days 2 and 3 (reads of this peptide / all reads for the bait, averaged over ….
Turning to chain 1 S6T, the screen value is 0.0012 average fractional NGS count over selection days 2 and 3 (reads of this peptide / all reads for the bait, averaged over ….
With chain 1 S6N, the screen value is 0.000518 average fractional NGS count over selection days 2 and 3 (reads of this peptide / all reads for the bait, averaged over ….
The same measure, in the same setting: for chain 1 S6W the value was 0.000475 average fractional NGS count over selection days 2 and 3 (reads of this peptide / all reads for the bait, averaged over …; for chain 1 K4Y, 0.00101 average fractional NGS count over selection days 2 and 3 (reads of this peptide / all reads for the bait, averaged over …; for chain 1 K4H, 0.00136 average fractional NGS count over selection days 2 and 3 (reads of this peptide / all reads for the bait, averaged over ….
Regarding chain 1 K4L, the screen value is 0.0004 average fractional NGS count over selection days 2 and 3 (reads of this peptide / all reads for the bait, averaged over ….
Still for that read-out and setting: for chain 1 K4E the value was 0.000553 average fractional NGS count over selection days 2 and 3 (reads of this peptide / all reads for the bait, averaged over …; for chain 1 K4N, 0.0102 average fractional NGS count over selection days 2 and 3 (reads of this peptide / all reads for the bait, averaged over ….
In the case of chain 1 K4G, the screen value is 0.000301 average fractional NGS count over selection days 2 and 3 (reads of this peptide / all reads for the bait, averaged over ….
chain 1 K4P: the screen value is 0.0037 average fractional NGS count over selection days 2 and 3 (reads of this peptide / all reads for the bait, averaged over ….
On the same count and under the same terms, for chain 1 K4A the value was 0.00111 average fractional NGS count over selection days 2 and 3 (reads of this peptide / all reads for the bait, averaged over …; for chain 1 K4T, 0.00284 average fractional NGS count over selection days 2 and 3 (reads of this peptide / all reads for the bait, averaged over ….

The variants in the next assay derive from B2. The assay is described as above.
Turning to chain 1 Q12V, the screen value is 0.0011 average fractional NGS count over selection days 2 and 3 (reads of this peptide / all reads for the bait, averaged over ….
On the same count and under the same terms, to chain 1 Q12M belongs 0.000477 average fractional NGS count over selection days 2 and 3 (reads of this peptide / all reads for the bait, averaged over …; to chain 1 Q12I, 0.00133 average fractional NGS count over selection days 2 and 3 (reads of this peptide / all reads for the bait, averaged over ….
As to chain 1 Q12P, the screen value was 0.00104 average fractional NGS count over selection days 2 and 3 (reads of this peptide / all reads for the bait, averaged over ….

Source of the values: article PMC12102759 (2025).
